The assay concerns the target complement C1q (in Hamster complement, Abcham Ab155111) (hamster). The experiment in a line: cell-based or functional assay.

With “h-IgG Fc fragment (Sigma Aldrich), chemically coupled to human red blood cells”, the complement-induced hemolysis of Fc coupled RBC (OD 540 nm, against 100% hemolysis by Tween-20); 6 nm activated Fc (about 5x10^6 molecules per RBC) amounted to 80% and the complement-induced hemolysis of Fc coupled RBC; 1.2 nm activated Fc (about 1x10^6 molecules per RBC) was 30 to 40%.
In turn, “h-IgG (Sigma Aldrich), chemically coupled to human red blood cells (antibody)” registered a complement-induced hemolysis of IgG coupled RBC (OD 540 nm, against 100% hemolysis by Tween-20); 6 nm activated IgG (about 5x10^6 molecules per RBC) of 90%; a complement-induced hemolysis of IgG coupled RBC; 1.2 nm activated IgG (about 1x10^6 molecules per RBC) of 30 to 40%; a complement-induced hemolysis when about 1-2x10^4 IgG molecules were bound per one RBC (not shown) of 85 to 95%.

For the origin of these results see patent publication US20190352642A1.
